Data from the domain aggregation screens of Martell et al. (2025).

Assay: soluble fraction after stress (log2 fold change); higher = more stays soluble; pooled small domains, quantitative proteomics
Settings: stress: pH 4
Method in brief: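 High-throughput quantitative proteomics was run on pooled custom libraries of small protein domains following pH 4 stress. Fold changes are on a log2 scale; higher values mean more of a domain remained soluble. The fold change in soluble amount is taken as a measure of aggregation propensity.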

| Sequence | soluble fraction (log2) |
| --- | --- |
| HMSYANVEWRDFLNSLDEKYRIVVILYYVQGFKTREIAEILQINQSTVRGRLAKAREKLEQQYN | -1.13 |
| HMSYFIFDGVLNLGKQYELKGEESSHITKSRRLRPGDSFLIQDQEGQRFEAILKSFDRNSLIFTPHKPTA | 0.043 |
| HMSYFNEYEVGDTIRVVNGPLADQISTITAIDKEKGLVNISTVFFGRENNVQVSINDIEKYN | -0.903 |
| HMSYGDLTGRTVVITGASKGIGARASRVLAQAGASVVGLARSVDELTALKYDLENDGLSFDFG | ≥ 0.43 |
| HMSYKYYSTERPLMPGSFPKPQGNTVLNIENFNDRSYVGKIGREAWGFIEYEKPISPVLLDDYELVAA | ≥ 0.43 |
| HMSYLELENLAEDIKATYDNLSTDLREVFRLSDIEGLSYEEISNKMNIPIGTVRSRLHRARETLLRIFNN | -1.22 |
| HMSYPTAVTQTTLNVRTGPGTQYERLGAFVENTEVIVLTRQPEWIQVRGMSGDKAIIGWVSARYLQMNP | 0.18 |
| HMSYQNKLNYLINAFGGADNFQKLLGVGPSAISNYKSRKHLPLNQAKRLSKIAPQFGFSLDPHSLQIST | 0.0613 |
| HMSYQSYDKVVGDTFFEANLKAESKFGKGNFEIISTRRVKHPIYLGFGHKELVELTIGIHDP | -0.302 |
| HMSYTAYLSQELGDMSREIQSELLKKGYNGSSSFTIVRTYMGSSVKFSVYNANNGELITSKTINM | -0.306 |
| HMSYTDIILKMSNVNFLTKVNFTNSEKNKNIKNGNFLIKKGKNRITAAFDYKDNELVISKSNLRNTFL | -1.22 |
| HMTAEVIYVDVGGEVNQPSVVELTDGSRVTDAIAAAGGLTEKADLTDINRAAFVSDGEKIFIPSQEE | -0.385 |
| HMTAFAGLTPRERDLLELIAQGRDNAQIAATLGVSDKTVRNHITHIFAKLEVETRAQAIVLARNAGFGRA | -0.0568 |
| HMTAGYFTRGSHQDEVLRIQGTPSGVNKYSDHEVWNYGLSSVDISLRDRRVTEWNNISGNLKV | -0.35 |
| HMTAKRELILRVFMDSNGKLLSIDDVFMEMRKKRSHRTSKMTVKRAIDLLVDLGLLKEVLFDDDNIKYEYV | -0.105 |
| HMTALISGNKAMQMLELSRHSFEKIVKDGLLSIVHEGDKKYYEIGEVEAFMGSDTYKELVNGV | -0.314 |
| HMTALSIGTVVRFTGDRHYISSTGDTGYPASPGLAKITSINPGSKHPYHLIHIDNTSNVYGWVNKQDIIT | ≥ 0.43 |
| HMTAQLSITLNGETRRAAAGSIADLVRSLELDPAKVAVERNGLIVPRSTLAEVALGDGDVLEIVHFV | -0.4 |
| HMTASTLSYSKFNEQVVQNQVRKVTFQGEQVKGELISGQTFTTTVPANDTTLWPMLKAHNVDTAVTAA | 0.0376 |
| HMTASVTDAMFELIDELPKLGKTSFRQLTADLVDRLQVVVTFLAVLELYKQGHVELDQSERFGDITVVWTG | -1.11 |
| HMTATIEEVNELTQSARVNINVPYAAKDEAKAYGAKWDDVERTWYTTGENYAQNKDFFDGFNPTAS | -0.132 |
| HMTATWLTYYRIKAGLTQKRLAELAGLNIRQVQKIENGETLAGNTTAKNLLALADALGIDPHKL | -0.381 |
| HMTAYENSIPLNWVIQKGDAKGLPLSANTARLLIDIVGIDLMDLDHELEKISLYLSGESITEEMIKEHIRG | -1.01 |
| HMTDAELDLLTPREQEVLQLIARGYLYKEIARRLGISVKTVEAHASSVLRKLQLSTRHELSHWAAQRH | -0.192 |
| HMTDAYEVLDLNREASDEEIKKRYRELIREHHPDTLIAKGVPQEFVDLANDKMAAINAAYDRIEKDRGL | -0.0939 |
| HMTDEEKENLREKMLEAGFPLLKQYGMTHTSVAKITQAAGIAVGTFYSFWKNKEAYMADLIGYHRR | 0.105 |

| Sequence | soluble fraction (log2) |
| --- | --- |
| HMTDITSAITRLNKYNKSGTPLTIDSVTPEALQTLQAKVSSAFEIGAVNQQTYDDVTKDIATLQQYLSSA | -0.102 |
| HMTDIVPNLIGKSLKDAIQSVEKSNLKAIFDGHGIVVSQQPRPGSPIPARKIMKVTLSPDYR | 0.135 |
| HMTDKLEEEAKKKAMEDALADEMNISKTIVHDGIRELARIGFLDVISRKGIYVADYTFTGNLETLLAVIRY | -0.0919 |
| HMTDLDDFAARLKTLTDGRASTPRLRDGVMMLSLDVGGLGPDQRDGLIAAIREGGLTVPGVSDVRIVMT | 0.22 |
| HMTDLEDDEKKVYRLIVESGEGIDFDTLSERSGFSATELPSILLFLMMKEMIDELPGKIYRYSE | -0.327 |
| HMTDMYLTYQELRHLGVSQNLISMWKSRKSIDFHMLGGTLYVRYMSIPEQTRSKLALQNVERVYNSRE | 0.0329 |
| HMTDRINIGDVVTIISKDREDSQIVYMRYHKGKLSILGELILNKTKNDTVDFKGRTYDIATIEKS | -0.228 |
| HMTDVHFIDVPVSEGHPWIGLTVKDLNLPPGTLLVFLNHPGEKSTVPNGDTVLREGDVLVLGATAYAG | -1.02 |
| HMTDYKTNLQEFLQQDGEVEIEYKLLAEVGPSHARQFEVDVMMGDRVLGSGVGRNKKAAEQAAAKVALSKL | -0.375 |
| HMTDYVPTIGTKISKDFGSKGYFEGEVVSGPHNVTVEGDNMVVWKVQYEDGDREEMTASEIAHWKA | 0.22 |
| HMTEAIDVPNLVGQNYSDVKSNSSYKFNWDIINVYDSGKPEGEIIKQEPEAGSKKVKENAVITLTVN | -0.0209 |
| HMTEDNDLETIAYDILKERNLNNININVKNGVLNIYGKTETLKEKREIEKILSSLNVSKINNLIKI | ≥ 0.43 |
| HMTEDQDWAIFKQKLKAQTEIDLDLYKEPQMKHRIKNLIQNAGFDSYVQYFDYVYLNQDRLAAFLENLTV | -1.15 |
| HMTEEELLERLDAVITEYKGKPGALIPVLQLAQGIFGYLPEVALKHIARQLDKPYSEVAGVVSFYSFFTT | -0.048 |
| HMTEFDVIMKSFGSEKIKVIKEVRAITGLGLAEAKALVEGVPAKIKEQVSKDDAEALKKQLEAVGAEVEL | -0.76 |
| HMTEFWTGPITTVTKANFADWTLDTNQDRITANVWLTRADSKGLFNITPGKETAFDIVDYLSPLDTEWA | -1.82 |
| HMTEGDRLARRILRLVRNKPNGYPEVELMKATVLDWNHFQRSISSLEMAGILERRDPGDGTPPVWVEKR | -1.11 |
| HMTEKIEWYKEVLDLEPNSKIFFPLAKMLEKEGELEEARRVLAEGVSRHEEFLEARLFYISVLSRL | -1.05 |
| HMTENLELLATGSLWTEPDGSGKIISYLIPGLRVKKLETNGIFYKIQLQNGLIGWADQSLFTIAEPK | -0.212 |
| HMTENQKNIDLIKIVSLLVHAAKIDENYTNKEKELIINFINNFSKENKQNIKSSEILEEAEKYEK | -0.0377 |
| HMTEPKRIVDHWQPSDDVYDILRMSHIDLDFARSLLPEFIVYWKDSSQTHTSWNSKFLQHAKYHWAKRHQL | -1.21 |
| HMTEPLTKREKEVLLLLPRGLTAKAMASELFLTEATIKSHLAAIFRKFKVVNRTQAIAIAVESKILT | -1.1 |
| HMTESLVITVDPALHGLRLDRGLADALPDRSRSEVQRWIKEGRVQLHGAPAKPSLKLAAGDIVTIALPEE | 0.236 |
| HMTESSTYFEKIGTEISQFKSIPKNIDVIIIEKLIYSGIIKKVDNEENSRVYYILTRKGRYFWKRYVLS | -0.0659 |
| HMTETFVLNLRQPIAAAPVLPGYRVARTDEQTLEVEVSKDQNLNEIFTALSALGVEVLSMRNK | -0.303 |
| HMTFAEADAQYEVIKQQYLAGALDEEQFDEQLHRLMVLDDGGLWWAKSRENGSWHYYDPDREDWIAATP | -0.995 |

| Sequence | soluble fraction (log2) |
| --- | --- |
| HMTFEAKKGYINADMSVNVRETASTSATVIITLNPNTEVKVVGEENDFYKIEYKEYKGYVAKRLISDSQVQ | -0.142 |
| HMTFPTEAKLTGDKVFVRSGPSTQSQRLTNLAINSVVTVLAREMGDMQYPWYKVRYSDGEGWVYGQYVEAI | 0.122 |
| HMTFTQFAESHGVIIKSLKASDKIQRGPTVAHPKSDNGAWLWDGNRGGVMAWDGDGQWYWFK | -0.108 |
| HMTGEERRMNTADLYRRRGMELFKRKIYVDAIDSLKVSLEYEDNATTRYYLDLATKRYQDLKIS | -0.0891 |
| HMTGETWAERSRALAAAGLIVMGQEAKNKIEDLPSLSPLIEAAAASETRLLTGQIIDELLAFV | -1.04 |
| HMTGIELLSHREHQVYDLLTQGRTVTEIGAQLNLAPNTVSTYRARILEKTGTKNDVELALYAQRH | -0.114 |
| HMTGKASEIAALLEQRIAAGDYPAGSKLPSERELAASFHVSRNTIRDAIALLAARKIVSTKWGAGTVVLG | -0.0946 |
| HMTGLRETIPAALDGERLDRVVALLGDVSRSRASAALEAERVTLDGEVVTLRSHRVREGEELTVAGFE | 0.177 |
| HMTGLSAQILAKLRDNHGVLPVSDKSDPAVISNLFGVSKGNFKKAIGGLYKEGQIVIHADRIEL | 0.302 |
| HMTGLSFEEKDLLGNALKLLDETERRIVILHATSGLKHREIAKQLDIPLPTVLSKYTRAIKKLKKHME | -0.144 |
| HMTGPSYTTRRVEAAETMMEFLRTFPQAAPFIGDLYVKAQDWPLGEEIGDRLKKMLPPQLQE | -0.451 |
| HMTGQVASMVERLAQRLKDQPQDAEGWAMLARSYSVLGRHPEALQAYEKALALRKDDANLLADYADSLA | -0.729 |
| HMTGRHEEAIQELKRTLELHPQKPKIFLLLGVSYLRLNNLKKAVEAFNTVLLLQPKNQKALTMLKEIKKR | -0.113 |
| HMTGSLLVEVQGRPDADRLLGQALVDAGLTARPAGGALIEVEVRDETTPDVVRDLTVDLGLGLVRMQERH | -1.01 |
| HMTGSLRIKHKTYYMLFSWKDESGQWRQKSESTGIPERGGKRKAQEMLNTRLEELQLQSTASL | 0.199 |
| HMTGSLRVTSSPSGAEIYVDEIYRGYTPLTIGSLSTGRHEVRLHLSGYQDYTRTVEIESGSQSSFSVTLT | 0.0547 |
| HMTGSTSVAQVSTPSGSLNLRAYASTSARVLLQIPEYAFVTVYNRGATWSYVSYNGVSGYVMSVYLSFGG | -0.846 |
| HMTGTVKVNSLNVYKSASLDSEVKDTLVLNTKVTIAENGQVTDGIYVWGRLQSGEGYVQMNNLTL | -1.59 |
| HMTHRRLELTLDAIDERLDRALTAAVPELSRMQWQRLIREGLVTVDGERARPSYRIQGGETLVALVPEV | -0.167 |
| HMTIAEGLIFRFTEPFKPIDQYTYYIMGDNKVEQIPNFKTLEVMLAQRNQNYLSVRVIEKSQLDDILKEF | -1.73 |
| HMTIDETKKQQVKDGLKDIPGVTVEFVGDKAVLKGAVTDANRVKIMQIVMAAKVLSDASGLTSK | 0.237 |
| HMTIDTSNDLLNQITEATSKGPISILELKDQLNVNASDIEGELRTLIDQHLVFLKDGMLQVIPFD | -0.423 |
| HMTIEEMAIENINFSTQLLYKAMKYNGVNTVGDLLEKARSKKDLLTMAYIGNKEAEEIIEKLSELGITI | -1.84 |
| HMTIFGWQQDETGKWYRNADGTFYENGWKEIDGAQYYFDENGYVTTGWLELDGKDYYFDEEGKYDSTKVR | -1.25 |
